One block for each binder: values may come before it.
Assays:
[1] = target: T1, TGFβ2 (R&D Systems); assay: SPR full titration
T1 construct: also called TGFB2
T1 sequence (P61812 303-414, species assumed, looked up): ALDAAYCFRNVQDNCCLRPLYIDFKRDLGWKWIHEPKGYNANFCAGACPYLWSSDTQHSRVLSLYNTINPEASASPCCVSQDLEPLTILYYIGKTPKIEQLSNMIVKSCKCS

[2] = target: T2, TGFβ1 (R&D Systems); assay: SPR full titration
T2 construct: also called TGFB1

[3] = target: T3, TGFβ3 (R&D Systems) (Homo sapiens (Human), UniProt P10600 301-412, Active TGFβ3 is a disulfide-linked homodimer of this chain; one copy is given.); assay: SPR full titration
T3 construct: also called TGFB3
T3 sequence: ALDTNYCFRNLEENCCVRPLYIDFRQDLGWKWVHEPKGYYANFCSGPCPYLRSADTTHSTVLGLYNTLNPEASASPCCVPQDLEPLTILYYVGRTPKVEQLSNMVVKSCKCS

[4] = target: T1, TGFβ2 (R&D Systems); assay: cell-based or functional assay
[5] = target: T2, TGFβ1 (R&D Systems); assay: cell-based or functional assay
[6] = target: T3, TGFβ3 (R&D Systems); assay: cell-based or functional assay
[7] = target: T2, TGFβ1 (R&D Systems); assay: single point SPR

T2 sequence (P01137 279-390): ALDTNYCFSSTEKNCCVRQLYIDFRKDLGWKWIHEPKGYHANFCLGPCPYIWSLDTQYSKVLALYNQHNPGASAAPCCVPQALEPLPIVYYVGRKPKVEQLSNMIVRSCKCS

B1: affinity matured HcLb 269 (antibody, V domains shown)
VH: EVQLVQSGAEVKKPGASVKVSCKTSGYTFMTYWMNWVRQAPGAGLDWMGQIFPAWGMTNYNEMFEGRVTLTADTSTSTAYMELSSLRAGDIAVYYCARGYGNYALDAMDYWGQGTLVTVSS
VL: DIVMTQTPPSLSVSPRETASISCRASESVDSYGNSFMHWYLQKPGQSPQLLIYLASNLESGVSDRFSGSGSGTDFTLRISRVEANDTGVYYCQQNDEDPLSFGQGTK
notes: full IgG; also called canHcLb/55SW/100DY/57SM/30IM + canHcLb/237ND/242TS
- Kd [1]: 3.05 nM
- Kd [2]: 4.4 nM
- Kd [3]: 0.99 nM

B2: affinity matured HcLb 27 (antibody, V domains shown)
VH: EVQLVQSGAEVKKPGASVKVSCKTSGYTFITYWMNWVRQAPGAGLDWMGQIFPASGSTNYNEMFEGRVTLTADTSTSTAYMELSSLRAGDIAVYYCARGYGNYALDAMDYWGQGTLVTVSS
VL: DIVMTQTPPSLSVSPRETASISCRASESVDSYGNSFMHWYLQKPGQSPQLLIYLASNLESGVSDRFSGSGSGTDFTLRISRVEANDTGVYYCQQNNEDPLTFGQ
- pSmad-3, IC50 [4]: 8.24 nM
- pSmad-3, IC50 [5]: 1.43 nM
- pSmad-3, IC50 [6]: 1.7 nM

B5: affinity matured HcLb 265 (antibody, V domains shown)
VH: EVQLVQSGAEVKKPGASVKVSCKTSGYTFMKYWMNWVRQAPGAGLDWMGQIFPAWGMTNYNEMFEGRVTLTADTSTSTAYMELSSLRAGDIAVYYCARGYGNYALDAMDYWGQGTLVTVSS
VL: DIVMTQTPPSLSVSPRETASISCRASESVDSYGNSFMHWYLQKPGQSPQLLIYLASNLESGVSDRFSGSGSGTDFTLRISRVEANDTGVYYCQQNDEDPLSFGQGTK
notes: full IgG; also called canHcLb/55SW/100DY/30IM/31TK/57SM + canHcLb/237ND/242TS
- Kd [1]: 2.82 nM
- Kd [2]: 3.24 nM
- Kd [3]: 0.7 nM

B7: affinity matured HcLb 266 (antibody, V domains shown)
VH: EVQLVQSGAEVKKPGASVKVSCKTSGYIFMKYWMNWVRQAPGAGLDWMGQIFPAWGMTNYNEMFEGRVTLTADTSTSTAYMELSSLRAGDIAVYYCARGYGNYALDAMDYWGQGTLVTVSS
VL: DIVMTQTPPSLSVSPRETASISCRASESVDSYGNSFMHWYLQKPGQSPQLLIYLASNLESGVSDRFSGSGSGTDFTLRISRVEANDTGVYYCQQNDEDPLSFGQGTK
notes: full IgG; also called canHcLb/55SW/100DY/30IM/31TK/28TI/57SM + canHcLb/237ND/242TS
- Kd [1]: 2.9 nM
- Kd [2]: 2.4 nM
- Kd [3]: 0.453 nM

B9: affinity matured HcLb 205 (antibody, V domains shown)
VH: EVQLVQSGAEVKKPGASVKVSCKTSGYIFITYWMNWVRQAPGAGLDWMGQIFPAWGSTNYNEMFEGRVTLTADTSTSTAYMELSSLRAGDIAVYYCARGYGNYALDAMDYWGQGTLVTVSS
VL: DIVMTQTPPSLSVSPRETASISCRASESVDSYGNSFMHWYLQKPGQSPQLLIYLASNLESGVSDRFSGSGSGTDFTLRISRVEANDTGVYYCQQNDEDPLSFGQGTK
notes: full IgG; also called canHcLb/S55W/D100Y/T28/I + canHcLb/237ND/242TS
- Kd [1]: 2.09 nM
- Kd [2]: 1.78 nM
- Kd [3]: 0.005 nM

B11: affinity matured HcLb 264 (antibody, V domains shown)
VH: EVQLVQSGAEVKKPGASVKVSCKTSGYIFMKYWMNWVRQAPGAGLDWMGQIFPAWGSTNYNEMFEGRVTLTADTSTSTAYMELSSLRAGDIAVYYCARGYGNYALDAMDYWGQGTLVTVSS
VL: DIVMTQTPPSLSVSPRETASISCRASESVDSYGNSFMHWYLQKPGQSPQLLIYLASNLESGVSDRFSGSGSGTDFTLRISRVEANDTGVYYCQQNDEDPLSFGQGTK
notes: full IgG; also called canHcLb/55SW/100DY/30IM/31TK/28TI + canHcLb/237ND/242TS
- Kd [1]: 3.89 nM
- Kd [2]: 2.69 nM
- Kd [3]: 3.75 nM

B13: Can-SL501-VH3 Y111V / Can-SL501-VL2 (antibody, V domains shown)
VH: EVQLVESGGDLVKPGGSLRLSCVASGFTFSSYGMHWVRQAPGKELEWVAVISYDGSIKYYADAVKGRFTISRDNAKNTLYLQMNSLRAEDTAVYYCARTGEYSGYDTDPQVSWGQGTTVTVSS
VL: EIVMTQSPGSLAGSAGESVSINCRASQGIGDDLGWYQQKPGERPKLLIYGTSTLQSGVPARFSSSGSGTDFTLTINNLQAEDVGDYYCLQDSNYPLTFGAGTK
- Kd [7]: 0.93 nM

B14: Can-SL501-VH3 S112P / Can-SL501-VL2 (antibody, V domains shown)
VH: EVQLVESGGDLVKPGGSLRLSCVASGFTFSSYGMHWVRQAPGKELEWVAVISYDGSIKYYADAVKGRFTISRDNAKNTLYLQMNSLRAEDTAVYYCARTGEYSGYDTDPQYPWGQGTTVTVSS
VL: EIVMTQSPGSLAGSAGESVSINCRASQGIGDDLGWYQQKPGERPKLLIYGTSTLQSGVPARFSSSGSGTDFTLTINNLQAEDVGDYYCLQDSNYPLTFGAGTK
- Kd [7]: 2.8 nM

B15: Can-SL501-VH3 S112A / Can-SL501-VL2 (antibody, V domains shown)
VH: EVQLVESGGDLVKPGGSLRLSCVASGFTFSSYGMHWVRQAPGKELEWVAVISYDGSIKYYADAVKGRFTISRDNAKNTLYLQMNSLRAEDTAVYYCARTGEYSGYDTDPQYAWGQGTTVTVSS
VL: EIVMTQSPGSLAGSAGESVSINCRASQGIGDDLGWYQQKPGERPKLLIYGTSTLQSGVPARFSSSGSGTDFTLTINNLQAEDVGDYYCLQDSNYPLTFGAGTK
- Kd [7]: 0.877 nM

B16: Can-SL501-VH3 S112L / Can-SL501-VL2 (antibody, V domains shown)
VH: EVQLVESGGDLVKPGGSLRLSCVASGFTFSSYGMHWVRQAPGKELEWVAVISYDGSIKYYADAVKGRFTISRDNAKNTLYLQMNSLRAEDTAVYYCARTGEYSGYDTDPQYLWGQGTTVTVSS
VL: EIVMTQSPGSLAGSAGESVSINCRASQGIGDDLGWYQQKPGERPKLLIYGTSTLQSGVPARFSSSGSGTDFTLTINNLQAEDVGDYYCLQDSNYPLTFGAGTK
- Kd [7]: 6.97 nM

B17: Can-SL501-VH3 S112G / Can-SL501-VL2 (antibody, V domains shown)
VH: EVQLVESGGDLVKPGGSLRLSCVASGFTFSSYGMHWVRQAPGKELEWVAVISYDGSIKYYADAVKGRFTISRDNAKNTLYLQMNSLRAEDTAVYYCARTGEYSGYDTDPQYGWGQGTTVTVSS
VL: EIVMTQSPGSLAGSAGESVSINCRASQGIGDDLGWYQQKPGERPKLLIYGTSTLQSGVPARFSSSGSGTDFTLTINNLQAEDVGDYYCLQDSNYPLTFGAGTK
- Kd [7]: 0.762 nM

B18: Can-SL501-VH3 S112T / Can-SL501-VL2 (antibody, V domains shown)
VH: EVQLVESGGDLVKPGGSLRLSCVASGFTFSSYGMHWVRQAPGKELEWVAVISYDGSIKYYADAVKGRFTISRDNAKNTLYLQMNSLRAEDTAVYYCARTGEYSGYDTDPQYTWGQGTTVTVSS
VL: EIVMTQSPGSLAGSAGESVSINCRASQGIGDDLGWYQQKPGERPKLLIYGTSTLQSGVPARFSSSGSGTDFTLTINNLQAEDVGDYYCLQDSNYPLTFGAGTK
- Kd [7]: 3.51 nM

B19: Can-SL501-VH3 S112N / Can-SL501-VL2 (antibody, V domains shown)
VH: EVQLVESGGDLVKPGGSLRLSCVASGFTFSSYGMHWVRQAPGKELEWVAVISYDGSIKYYADAVKGRFTISRDNAKNTLYLQMNSLRAEDTAVYYCARTGEYSGYDTDPQYNWGQGTTVTVSS
VL: EIVMTQSPGSLAGSAGESVSINCRASQGIGDDLGWYQQKPGERPKLLIYGTSTLQSGVPARFSSSGSGTDFTLTINNLQAEDVGDYYCLQDSNYPLTFGAGTK
- Kd [7]: 3.4 nM

Next, values leading:

- Kd [3]: 1.19 nM
B3: affinity matured HcLb 270 (antibody, V domains shown)
VH: EVQLVQSGAEVKKPGASVKVSCKTSGYTFMTYWMNWVRQAPGAGLDWMGQIFPAWGMTNYNEMFEGRVTLTADTSTSTAYMELSSLRAGDIAVYYCARGYGNYALDAMDYWGQGTLVTVSS
VL: DIVMTQTPPSLSVSPRETASISCRASESVDSYGNSFMHWYLQKPGQSPQLLIYLASNLESGVSDRFSGSGSGTDFTLRISRVEANDTGVYYCQQNDEDPLSFGQGTK
notes: full IgG; also called canHcLb/55SW/100DY/57SV/30IM + canHcLb/237ND/242TS

- Kd [1]: 3.77 nM
- Kd [2]: 5.1 nM
- Kd [3]: 1.01 nM
B4: affinity matured HcLb 267 (antibody, V domains shown)
VH: EVQLVQSGAEVKKPGASVKVSCKTSGYIFMKYWMNWVRQAPGAGLDWMGQIFPAWGSTNYNEMFEGRVTLTADTSTSTAYMELSSLRAGDIAVYYCARGYGNYALDAMDYWGQGTLVTVSS
VL: DIVMTQTPPSLSVSPRETASISCRASESVDSYGNSFMHWYLQKPGQSPQLLIYLASNLESGVSDRFSGSGSGTDFTLRISRVEANDTGVYYCQQNNEDPLTFGQ
notes: full IgG; constant regions not restated

- Kd [1]: 2.02 nM
- Kd [2]: 2.39 nM
- Kd [3]: 0.895 nM
B6: affinity matured HcLb 272 (antibody, V domains shown)
VH: EVQLVQSGAEVKKPGASVKVSCKTSGYKFMFYWMNWVRQAPGAGLDWMGQIFPAWGMTNYNEMFEGRVTLTADTSTSTAYMELSSLRAGDIAVYYCARGYGNYALDAMDYWGQGTLVTVSS
VL: DIVMTQTPPSLSVSPRETASISCRASESVDSYGNSFMHWYLQKPGQSPQLLIYLASNLESGVSDRFSGSGSGTDFTLRISRVEANDTGVYYCQQNDEDPLSFGQGTK
notes: full IgG; also called canHcLb/55SW/100DY/57SM/30IM/31TF/28TK + canHcLb/237ND/242TS

- Kd [1]: 1.28 nM
- Kd [2]: 2.3 nM
- Kd [3]: 0.957 nM
B8: affinity matured HcLb 271 (antibody, V domains shown)
VH: EVQLVQSGAEVKKPGASVKVSCKTSGYTFMFYWMNWVRQAPGAGLDWMGQIFPAWGMTNYNEMFEGRVTLTADTSTSTAYMELSSLRAGDIAVYYCARGYGNYALDAMDYWGQGTLVTVSS
VL: DIVMTQTPPSLSVSPRETASISCRASESVDSYGNSFMHWYLQKPGQSPQLLIYLASNLESGVSDRFSGSGSGTDFTLRISRVEANDTGVYYCQQNDEDPLSFGQGTK
notes: full IgG; also called canHcLb/55SW/100DY/57SM/30IM/31TF + canHcLb/237ND/242TS

- Kd [1]: 3.96 nM
- Kd [2]: 5.34 nM
- Kd [3]: 1.03 nM
B10: affinity matured HcLb 268 (antibody, V domains shown)
VH: EVQLVQSGAEVKKPGASVKVSCKTSGYIFMKYWMNWVRQAPGAGLDWMGQIFPAWGMTNYNEMFEGRVTLTADTSTSTAYMELSSLRAGDIAVYYCARGYGNYALDAMDYWGQGTLVTVSS
VL: DIVMTQTPPSLSVSPRETASISCRASESVDSYGNSFMHWYLQKPGQSPQLLIYLASNLESGVSDRFSGSGSGTDFTLRISRVEANDTGVYYCQQNNEDPLTFGQ
notes: as for B4

- Kd [1]: 2.91 nM
- Kd [2]: 2.39 nM
- Kd [3]: 0.824 nM
B12: affinity matured HcLb 275 (antibody, V domains shown)
VH: EVQLVQSGAEVKKPGASVKVSCKTSGYKFWFYWMNWVRQAPGAGLDWMGQIFPAWGMTNYNEMFEGRVTLTADTSTSTAYMELSSLRAGDIAVYYCARGYGNYALDAMDYWGQGTLVTVSS
VL: DIVMTQTPPSLSVSPRETASISCRASESVDSYGNSFMHWYLQKPGQSPQLLIYLASNLESGVSDRFSGSGSGTDFTLRISRVEANDTGVYYCQQNDEDPLSFGQGTK
notes: full IgG; also called canHcLb/55SW/100DY/57SM/30IW/31TF/28TK + canHcLb/237ND/242TS

Reference: US20220119513A1 (ZOETIS SERVICES, published 2022)
